Measured values from patent publication US20030171537A1 (Bayer, published 2003).
Non-standard residues stand in square brackets, D forms with d.

Molecular target: human wild-type p53 (full-length, in vitro translated from plasmid pGEMhump53wt) (human, UniProt P04637 1-393)
Assay: cell-based or functional assay

Sequence of human wild-type p53 (full-length, in vitro translated from plasmid pGEMhump53wt) (P04637 whole entry): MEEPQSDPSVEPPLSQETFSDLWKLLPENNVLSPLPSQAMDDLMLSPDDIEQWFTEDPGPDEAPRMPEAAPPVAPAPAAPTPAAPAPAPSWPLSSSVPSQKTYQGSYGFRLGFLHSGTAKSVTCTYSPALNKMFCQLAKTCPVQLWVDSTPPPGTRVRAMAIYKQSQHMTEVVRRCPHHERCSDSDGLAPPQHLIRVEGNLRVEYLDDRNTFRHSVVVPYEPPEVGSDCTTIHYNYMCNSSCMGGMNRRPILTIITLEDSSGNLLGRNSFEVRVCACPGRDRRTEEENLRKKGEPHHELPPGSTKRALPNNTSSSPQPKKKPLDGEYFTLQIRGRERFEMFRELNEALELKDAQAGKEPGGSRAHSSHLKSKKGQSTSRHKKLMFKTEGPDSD

activation of p53 DNA binding (gel shift), relative to 0.05 mM peptide p53p363-373: ~2 times
B1: cyclic peptide c[SRHKKa] (peptide)
peptide: cyclo(SRHKK[dA])
SMILES: C[C@H]1NC(=O)[C@H](CCCCN)NC(=O)[C@H](CCCCN)NC(=O)[C@H](Cc2c[nH]cn2)NC(=O)[C@H](CCCNC(=N)N)NC(=O)[C@H](CO)NC1=O
